Molecular target: T1, phiC31 integrase (Streptomyces phage phiC31) (UniProt Q9T221)
T1 sequence: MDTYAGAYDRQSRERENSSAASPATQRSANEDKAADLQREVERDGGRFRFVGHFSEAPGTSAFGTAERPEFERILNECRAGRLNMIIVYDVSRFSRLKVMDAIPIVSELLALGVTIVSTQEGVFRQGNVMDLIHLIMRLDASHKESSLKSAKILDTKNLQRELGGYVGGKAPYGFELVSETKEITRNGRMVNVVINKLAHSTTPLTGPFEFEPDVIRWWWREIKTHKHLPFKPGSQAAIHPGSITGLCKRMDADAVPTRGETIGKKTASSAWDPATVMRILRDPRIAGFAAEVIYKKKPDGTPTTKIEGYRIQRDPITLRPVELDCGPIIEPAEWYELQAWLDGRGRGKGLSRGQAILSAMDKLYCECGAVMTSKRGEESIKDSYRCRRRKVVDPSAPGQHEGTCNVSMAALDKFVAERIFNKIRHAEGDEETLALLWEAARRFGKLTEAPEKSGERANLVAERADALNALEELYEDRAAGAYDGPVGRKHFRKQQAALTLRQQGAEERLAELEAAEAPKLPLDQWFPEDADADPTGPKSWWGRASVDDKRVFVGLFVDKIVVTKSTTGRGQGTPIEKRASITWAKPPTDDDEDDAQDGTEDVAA
Experiment: cell_activity

| Substance | activity (recombination partner of attP in E. coli TG1, camR selection) | activity (co-integration of pDonor attP with pAcceptor attB in E. coli TG1, camR/ampR ratio versus already co-integrated plasmid) |
| --- | --- | --- |
| GGTGCCAGGGCGTGCCCTTGGGCTCCCCGGGCGCGTACTGAANTATACAAA (double strand) [phiC31 attB (36 bp, in pAcceptor 5' of promoterless camR)] | > 90% | – |
| phiC31 attP (36 bp, used as scFv linker in pDonor) | – | > 90% |
